# Numbered stars: 1 amine (or outer) side, 2 acyl side, 3 side chain; on linkers, the order of the positions; unused ones are H or OH. Square brackets hold non-standard residues; d marks the D form. Peptide text beside a SMILES is read from it. * marks the point of attachment. DOTA = O=C(O)CN1CCN(CC(=O)O)CCN(CC(=O)*)CCN(CC(=O)O)CC1; Cha = N[C@@H](CC1CCCCC1)C(=O)O; X1 = O=C(CCC(=O)[*:2])CN[*:1]; Nle = CCCC[C@H](N)C(=O)O
# Legend:
# [1] = Radio-HPLC retention time as reflection of lipophilicity; format: physicochemical; details: chromatographic, econosphere C18 (10 μm, 250 × 4.6 mm), 0.1% TFA water/acetonitrile, 5 to 95% B over 30 min, 1.1 mL/min; radio detection; used as reflection of lipophilicity
# Procedure: The HPLC analysis and purification of the peptides were performed on a Shimadzu HPLC system using econosphere C18 reversed-phase column (10 μm, 250 × 4.6 mm). For all HPLC experiments, a gradient system of 0.1% (v/v) TFA in water (solvent A) and 0.1% (v/v) TFA in acetonitrile (solvent B) at a flow rate of 1.1 mL/min was used. The HPLC gradient began with a solvent composition of 95% A and 5% B from 0 to 2.5 min followed by a linear gradient of 95% A and 5% B to 5% A and 95% B over 30 min. The gradient remained at this position for 3 min before switching back to 95% A and 5% B for another 7 min. The major peak isolated and the acetonitrile was then slowly evaporated under a stream of nitrogen gas. Radiochemical purity was estimated by evaluating radioactivity peaks eluted for each ^68Ga-labeled peptide from the HPLC column and calculating the area under the peak (ROI). The main peak of each radiopeptide was isolated and reconstituted in sterile saline for in vitro and in vivo experiments. Radiolabeling of DOTA-coupled BN peptides with ^68Ga was accomplished simply by mixing ~ 20 μg BN peptide with sodium acetate buffer and ^68GaCl3 followed by heating to complete the labeling reaction. By this facile method, a high and reproducible radiolabeling of peptides with ^68Ga was achieved (up to 95%), with a specific radioactivity of greater than 250 Ci/mmol. […] A radiolabeling efficiency of greater than 90% was obtained in all cases, and it ranged between 90 and 95%. […] RP-HPLC retention times of the major peaks, ranging from 18.3 to 20.3 min, reflected slightly variable lipophilicity of these ^68Ga-complexes (Table 1).
# [2] = in vivo; parameters: species or system Balb/c mice; details: Balb/c, mouse, iv
# Procedure: Approval for the animal protocol used in this study was obtained from the Institutional Animal Care and Use Committee. Animal studies were conducted according to the international regulations governing the safe and proper use of laboratory animals. In vivo biodistribution were performed on healthy Balb/c mice (n = 3–5 in each group, body weight 19–22 g) at 1 and 2 h after intravenous injection of the HPLC-purified radiopeptide (100 μL, 15–20 μCi, total peptide dose ~ 20 ng) via the lateral tail vein. The mice were sacrificed by cervical dislocation at specified time points and blood samples were withdrawn with a syringe from the heart. Major organs such as lungs, stomach, spleen, pancreas, intestines, liver, kidneys, etc. were isolated, weighed, and radioactivity in each organs and tissues were measured using a γ-scintillation counter. Uptake of radioactivity in the tissues and organs was expressed as the percent injected dose per gram (% ID/g) of tissue/organ, which was calculated by comparison with standard solutions representing 10% of the injected dose per animal. For the clearance studies, radioactivity in the urine with bladder and feces is expressed as the percent of the injected dose per tissue (% ID). Values are expressed as mean ± SD for a group of 3-5 animals at each time point.
# [3] = system: MDA-MB-231 tumors; experiment: in vivo; format: in vivo, nude mice; details: for Uptake in Tumor: nude mice with MDA-MB-231 tumors, mean ± SD, n = 3-5
# Procedure: BN/GRP receptor-positive MDA-MB-231 and PC3 cell lines (American Type Culture Collection, Rockville, USA) were grown as monolayers at 37 °C in a humidified atmosphere containing RPMI-1640 culture media with 10% fetal bovine serum (FBS) in tissue culture flasks. Twenty-four hours prior to conducting the tumor implantation, the media was replaced with RPMI-1640/10% FBS. The cells were grown to 80-90% confluency and harvested by trypsinization. After centrifugation, about 50 million cells were suspended in 1 mL media for implantation into mice. To prepare cells for inoculation, MDA-MB-231 or PC3 cancer cells with media were centrifuged, the media decanted, and the cell pellet was mixed with phosphate-buffered saline (PBS) to reach a concentration of approximately 5 million cells per 100 μL PBS. Human MDA-MB-231 breast cancer xenografts female mouse models were used for in vivo tumor-targeting experiments. For the implantation of tumor xenografts, approximately five million MDA-MB-231 cells in suspension of 100 μL sterile PBS were injected subcutaneously into the left thigh of each mouse. Tumors were allowed to grow for 4-6 weeks by which tumors had reached weights of 200-300 mg. After sufficient growth of tumors, animals were injected with 20-30 μCi of the radiotracers and the animals were sacrificed at specified time points. The uptake of ^68Ga-radiolabeled peptides in the tumors and other major body organs was calculated by γ-counting as described above.
# [4] = total radioactivity, %ID excreted in Feces
# [5] = total radioactivity, Uptake in Blood
# [6] = total radioactivity, Uptake in Bone
# [7] = total radioactivity, Uptake in Intestines (measured without their contents)
# [8] = total radioactivity, Uptake in Kidneys
# [9] = total radioactivity, Uptake in Pancreas
# [10] = total radioactivity, Uptake in Spleen
# [11] = total radioactivity, Uptake in Stomach
structure (smiles),measurement,setting,value
"CCCC[C@H](NC(=O)[C@H](Cc1c[nH]cn1)NC(=O)[C@H](CC1CCCCC1)NC(=O)[C@@H](NC(=O)[C@H](C)NC(=O)[C@H](Cc1c[nH]c2ccccc12)NC(=O)[C@H](CCC(N)=O)NC(=O)[C@H](CS)NC(=O)CNC(=O)CNC(=O)CCC(=O)CNC(=O)CN1CCN(CC(=O)O)CCN(CC(=O)O)CCN(CC(=O)O)CC1)C(C)C)C(=O)N[C@@H](CCSC)C(N)=O [^68Ga-DOTA-ALA-BN Cyclen, metal not drawn] ({DOTA}-[X1]GGCQWAV[Cha]H[Nle]M-NH2)",Radio-HPLC tR,[1],20.3 min
same,Uptake in Lungs,[2]; 1 h,1.39 ± 0.30 %ID/g
same,%ID excreted in Urine,[2]; 2 h,46.0 ± 9.12 %ID
same,Uptake in Liver,[2]; 2 h,1.75 ± 0.26 %ID/g
same,Uptake in Lungs,[2]; 2 h,0.98 ± 0.23 %ID/g
same,dose excreted at 1 h,[2]; [4],1.07 ± 0.17%
same,dose excreted at 2 h,[2]; [4],0.91 ± 0.14%
same,dose excreted at 1 h,"[2]; total radioactivity, %ID excreted in Urine",53 ± 6.8%
same,tissue uptake at 1 h,[2]; [5],0.8 ± 0.16 %ID/g
same,tissue uptake at 2 h,[2]; [5],0.51 ± 0.12 %ID/g
same,tissue uptake at 1 h,[2]; [6],0.24 ± 0.04 %ID/g
same,tissue uptake at 2 h,[2]; [6],0.15 ± 0.02 %ID/g
same,tissue uptake at 1 h,[2]; [7],0.88 ± 0.15 %ID/g
same,tissue uptake at 2 h,[2]; [7],0.73 ± 0.12 %ID/g
same,tissue uptake at 1 h,[2]; [8],5.89 ± 1 %ID/g
same,tissue uptake at 2 h,[2]; [8],3.05 ± 0.41 %ID/g
same,tissue uptake at 1 h,"[2]; total radioactivity, Uptake in Liver",2.3 ± 0.37 %ID/g
same,tissue uptake at 1 h,[2]; [9],1.54 ± 0.31 %ID/g
same,tissue uptake at 2 h,[2]; [9],0.89 ± 0.12 %ID/g
same,tissue uptake at 1 h,[2]; [10],0.1 ± 0.01 %ID/g
same,tissue uptake at 2 h,[2]; [10],0.08 %ID/g
same,tissue uptake at 1 h,[2]; [11],1.5 ± 0.37 %ID/g
same,tissue uptake at 2 h,[2]; [11],0.44 ± 0.1 %ID/g
same,Uptake in Spleen,"[3]; female, nude, mouse, in vivo, 2 h",0.17 ± 0.02 % ID/g
same,Uptake in Tumor,[3]; 1 h p.i.,1.82 ± 0.26 % ID/g
same,Uptake in Tumor,[3]; 2 h p.i.,0.84 ± 0.13 % ID/g
